# The nanobody polyreactivity screen of Harvey et al. (2022)
# Experiment: yeast display, Sf9 membrane polyspecificity reagent, FACS + sequencing; frameworks hold sequencing errors
# Summary of the method: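 In a synthetic yeast display library (Saccharomyces cerevisiae BJ5465), nanobody expression was induced with galactose for 36–48 hours. FACS gates were set low and high (top ~1%) using anti-HA fluorescence for expression and streptavidin fluorescence for binding of the Sf9 membrane reagent. Each polyreactivity label is drawn from the gate of origin.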
row,Sequence,polyreactivity (PSR sort gate)
1,QVQLVESGGGLVQAGGSLRLSCAASGSIFRVYAMGWYRQAPGKERELVAVITWTGGITYYADSVKGRFTISRDNAKNTVYLQMNSLKPEDTAVYYCNADLLTFAIKAPTGFYYWGQGTQVTVSS,high polyreactivity
2,QVQLVESGGGLVQAGGSLRLSCAASGSTFLVYAMGWYRQAPGKERELVAVIDNGGDTYYADSVKGRFTISRDNAKNTVYLQMNSLIPEDTEVYYCAADLSYLGYWEYDYWGQGTQVTVSS,low polyreactivity
3,QVQLVESGGGLVQAGGSLRLSCAASGNTFGRYAMGWYRQAPGKERELVASIRGSSVRTFYADSVKGRFTISRDNAKNTVYLQMNSLKPEDTAVYYCAAEVYRYYATGYGYWGQGTQVTVSS,high polyreactivity
4,QVQLVESGGGLVQAGGSLRLSCAASGRTFVFYAMGWYIQAPGKERELVASISDGDRTNYADSVKGRFTISRDNAKNTVYLQMNSLKPEDTAVYYCAADREFWWEVVYTYEYYYWGQGTQVTVSS,low polyreactivity
5,QVQLVESGGGLVQAGGSLRLSCAASGFIFQPYSLGWYRQAPGKERELVAAITSRGGRTYYADSVKGRFTISRDNAKNTVYLQMNSLKPEDTAVYYCNADIYASEYYYWGQGTQVTVSS,low polyreactivity
6,QVQLVESGGGLVQAGGSLRLSCAASGIIFGHYDMGWYRQAPGKERELVAAITFTGDSTYYADSVKGRFTISRDNAKNTVYLQMNSLKPEDTAVYYCAAETPVPWGSWGYDYWGQGTQVTVSS,low polyreactivity
7,QVQLVESGGGLVQAGGSLRLSCAASGSIFTKYAMGWYRQAPGKERELVAAINARGGSTYYADSVKGRFTISRDNAKNTVYLQMNSLKPEDTAVYYCAARYGVGRADYYWGQGTQVTVSS,high polyreactivity
8,QVQLVESGGGLVQAGGSLRLSCAASGSIFLYYTMGWYRQEPGKERELVAAITWSGSSTYYADSVKGRFTISRDNAKNTVYLQMNSLKPEDTAVYYCATRYRYRYWGQGTQVTVSS,high polyreactivity
9,QVQLVESGGGLVQAGGSLRLSCAASGSIFYYYAMGWYRQAPGKERELVADISISGGSTYYADSVKGRFTISRDNAKNTVYLQMNSLKPEDTAVYYCAATDYLWEPTVSNWGYTFDSWGQGTQVTVSS,low polyreactivity
10,QVQLVESGGGLVQAGGSLRLSCAASGSIFRYYAMGWYRPAPGKERELVAAISSGGNTKYADSVKGRFTISRDNAKNTVYLQMNSLKPADTAVYYCNAAGKACGDYDYWGQGTQVTVSS,low polyreactivity
11,QVQLVESGGGLVQAGGSLRLSCAASGSTFIDYAMGWYRQAPGKERELVAAITNGGNTKYADSVKGRFTISRDNAKNTVYLQMNSLKPEDTAVYYCAREPSIFTPSYDYWGQGTQVNVSS,low polyreactivity
12,QVQLVESGGGLVQAGGSLRLSCAASGITFSLYAMGWYRQAPGKERELVAAITRSGGSTYYADSVKGRFTISRDNAKNTVYLQMNSLKPEDTAVYYCAAKRPGVRRYYYWGQGTQVTVSS,high polyreactivity
13,QVQLVESGGGLDQAGGSLRLICAASGSIFNGNAMGWYRQAPGKQRDLVAAITRRGGSTYYADSVKVRFTISRDNAKNTVYLQMNSLKPEDTAVYYCAAEDWLYKRPYKERIVQFYYWGQGTQVTVSS,low polyreactivity
14,QVQLVESGGGLVQAGGSLRLSCAASGSTFRRNDMGWYRQAPGKERELVAAITSGGITNYADSVKGRFTISRDNAKNTVYLQMNSLKPEDTAVYYCNKDSDLHHYHTEFDYWGQGTQVTVSS,low polyreactivity
15,QVQHVESGGGLVQAGGSLRLSCAASGIIFGTNALGWYRQAPGKERELVAYITSGGSTYADSVKGRFTISRDNAKNTVYLQMNSLKPEDTAVYYCAAYVFWAFYEYDYWGQGTQVTVSS,low polyreactivity
16,QVQLVESGGGLVHAGGSLRLSCAASGFTFAQNAMGWYRQATGKEREWVAAITRSGARTYYADSVKGRFTISRDNAKNTVYLLMNSLKPEDTPVYYCNRDASRKYGYWGQGTQVTVSS,high polyreactivity
17,QVLLEDSGGGLVQAGARLRLICAASGRIHVNAMGWYRQAPGKERELVASINIGDGTHYADSVKGRFTISRANAKNTVYLQLNSLISEVTAVYYCAADSRSSNACYDYWGQGTQVSVSS,low polyreactivity
18,QVQLVESGGGLVQAGGSLRLICAASGRTFGGYAMGWYRQAHGKERELVAAISDRGTSTYYADSVKGRFTISRDNAKYTVYLQMNSVKPEDTAVYYCAASSARRRMDYWGQGTQVTVSS,high polyreactivity
19,QVHLVESGGGLVQAGGSLRLSCAASGRIFSRNAMGRYRQAPGKERELVAAISSDGNTNYADSVKGFTISRDNAKNTVYLQMNSLKPESTAVYYCAARFGYTAYGYWGQGTQVTVSS,low polyreactivity
20,QVQLVESGGGLVQAGGSLRLSCAASGIIFFHYAMGWYRQAPGKERELVAAITWSGGSTYYADSVKGRFTISRDNAKNTVYLKMNSLKPEDSAVYYCNAVLHRRLYDYWGQGPQVTVSS,high polyreactivity
21,QVQLVESGGGLVQAGGSLRLSCAASGFILAYYAMGWYRQSPGKERELVAAISIGSSTDYADSVKGRFTISRDNAKNTVYLQMNSLKPEDTAVYYCAARDYYYEYDYWGQGTQVTVSS,low polyreactivity
22,QVQLVESGGGLVQAGGSLRLSCAASGRTFRPNVMGWYRQAPGKERELVAAISNGGRTYYADSVKGRFTISRDNAKNTVYLQMNSLKPEDTAVYYCNKVRSPWYDSWGQGTQVTVSS,high polyreactivity

row,Sequence,polyreactivity (PSR sort gate)
1,QVQLVESVGGLVQAGGSLRLSCAASGFIFYGYAMGWYRQAPGKERELVAAISRSGTSTYYADSVKGRFTISRDYAKNTVYLQMNSVKPDDTAVYYCDADYVGWKWGSRGAIYKHYYWGQGTQVTVSS,high polyreactivity
2,QVQLVESGGGLVQAGGSLRLSCAASGRIFYRNAMGWYRQSPGKERELVAAINWSGGSTYYAYSVKGRFTISRDNAKNTVYLQMNSLKPEDTAVYYCATGYRQGEYDYWGQGTQVTLSS,low polyreactivity
3,QVQLVESGGGLVQAGGSLRLSCAASGSTFASYAMGWDRQAPGKERELVAAITDSGGSTYYADSVKGRFTISRDNAKNTVYLQMNSLKPEDTAVYYCAAYGPYFSYHDYDYWGQGTQVTVSS,low polyreactivity
4,QVQLVESGGGLVQAGGSLRLSCAASGRIFTQYAMGWYRPAPGKERELVAAINASDGSTYADSVKGRFTISRDNAKNTVYLQMNSLKPEDPAVYYCNVTGGPYDFTRWSEFDHWGQGTQVTVSS,low polyreactivity
5,QVQLVESGGGLVQAGGSLRLSCAASGIIFYDYAMGWYRQAPGKERELVAAITSNGDNTYYADSVKGRFTISRDNAKNTVYLQMNSLKPEDTAVYYCAVDGSFAADFDNYLEEYGYWGQGTLVTVSS,low polyreactivity
6,HVQHVESAGGLVQAGGSLRLSCAASGSIFTYNALGGYIQAPGKERELVAAIDYSGGSTYYADSVKGRFTISRDNAKNTVYLQMNSLKPEDTAVYYCAAPWVPYPGYSLYGYDYWGQGTQVTVSS,low polyreactivity
7,QVQLVESGGGLVQAGGSLRLSCAASGRTFLVYAMGWYRQAPGKERELVATIRASTGSTYADSVKGRFTISRDNAKNTVYLQMNSLKPEDTAVYYCAASIRTSPYNYDYWGQGTQVTVSS,high polyreactivity
8,QVQLVESGGGLVQAGGSLRLSCAASGSISGVYAMGWYRQAPGKERELVAAISRSGGSTYYADSVKGRFTISRDNAKNTVYLQMNSLKPEDTAVYYCAAEYTYYSYGGNYDYWGQGTQVSVSS,low polyreactivity
9,QVQLVESGGGLVQAGGSLRLSCAASGRIFVVYAMGWYRQAPGKESELVATISGGSTNYADSVKGRFTISRDNAKNTVYLQMNSVKPDDTAVYYCGMEYWGQGTQVTVSS,low polyreactivity
10,QVQLVESGGGLVQAGGSLRLSCAASGIIFDLYTKGWYRQAPGKEREFVATINWGGGNTYYADSVKGRFTISRDNAKNTVYLQMNSLKPDDTAVYYCAAAYTWYGYSQAYYYWGQGSQVTVSS,low polyreactivity
11,QVQLEDSGGGLVQAGGTHSLSCAASGFTFARNTMGWYRQAPGKERELVAAISWRGGRTYYADSVTGRFTISRDNAKNTDYLQMNRLKPEDRAVYYCNGVILKLGDALYDYWGEGTQVTVSS,high polyreactivity
12,QVQLVESGGGLVQAGGTLRLSCAATGFTFYEYAMGWYRQAPGKERELVAGIRRSGDSTYYADSVKGRFTISRDNAKNTVYLQMNILKPEDTAVYYCAKGWYRIKRNDYWGQGTQVTVSS,low polyreactivity
13,QVQLVESGGGLVQAGGSLRLSCAASGRIYYYAMGWYRQAPGKERELVAAISRGGSTKYADSVKGRFTISRDNAKNTVYLQMNSLKPEETAVYYCAAGGTVYRYDYWGQGTQVTVSS,low polyreactivity
14,QVQLVESGGGLVQAGGSLRLSCAASGSTIRSYAMGWYRQAPGKERELVAVISSGDSTYYADSVKGRFTISRDNAKNTVYLQMNSLKPEDTAVYYCAADSYVLGRWYGYWGQGTQVTVSS,low polyreactivity
15,QVQLVESGGGLVQAGGSLRLSCAASGRTFATYAMGWYRQAPGKERELVAAITSGGSTYYADSVKGRFTISRDNAKNTVYLQMNSLKPEDTAVYYCAAARKYYGYNYWGQGTQVTVSS,high polyreactivity
16,QVQLVESGGGLVQAGGSLRLSCSASGITFLHYAMGWYIQAPGKERELVARITYSGSSTYYADSVKGRFTISRDNAKNTVYLQMNSLKPEDTAVYYCNASASWGRWSRTGTPRYYYWGQGTQVTVSS,high polyreactivity
17,QVQLVESGGGLVQAGGSLRLSCAACGFTFTAYAMVWYRQAPGKERELVAAISYRGGRTNYAYSVKGRFTISRDNAKNTVYLQMNSLKPEDTAVYYCAARPRISTREMDYWRQGTQVTVSS,high polyreactivity
18,QVQLVESGGGLVQAGGSLRLSCAASGRIFTGYAMGWYRQAPGKERELVASITWRGGSTSYADSVKGRFTISRDNAKNTVYLQMNSLKPEDTAVYYCAAQKWYYPYYWGQGTQVTVSS,high polyreactivity
19,QVQLVESGGGLVQAGGSLRLSCAASGSTFNRNTMGWYRQAPGKERELVAAITSSGGRTYYADSVKGRFTISRDNAKNTVFLQVNSLKPEDTAVYYCATVNRVLIAGRFDSWGQGTQVTVSS,high polyreactivity
20,QVQLVESGGGLVHAGGSLRLSCAASGFTFGNAMGWYRQAPGKERELVAAITVNGGTTNYADSVKGRFTISRDNAKNTVYLQMNSLKPEDTAVYSCNVDTSYGPAGDYWGQGTQVTVSS,low polyreactivity
21,QVQLVESGGGLVQAGGSLRLICAASGRTFYVYAMAWYRQEPGKERELVAAISKSGGSTYYADSVKGRFTISRDNAKNSVYLPMNSLKPEDTAGYYCNRYRFVRQVRGGGLPYDYWGQGTQVTVSS,high polyreactivity
